Data as given in patent US5733730, “Telomere repeat binding factor and diagnostic and therapeutic use thereof” (The Rockefeller University).

T1: TRF (MTRF12, full length) (Mus musculus, UniProt P70371 P70371:1-421)
T1 sequence: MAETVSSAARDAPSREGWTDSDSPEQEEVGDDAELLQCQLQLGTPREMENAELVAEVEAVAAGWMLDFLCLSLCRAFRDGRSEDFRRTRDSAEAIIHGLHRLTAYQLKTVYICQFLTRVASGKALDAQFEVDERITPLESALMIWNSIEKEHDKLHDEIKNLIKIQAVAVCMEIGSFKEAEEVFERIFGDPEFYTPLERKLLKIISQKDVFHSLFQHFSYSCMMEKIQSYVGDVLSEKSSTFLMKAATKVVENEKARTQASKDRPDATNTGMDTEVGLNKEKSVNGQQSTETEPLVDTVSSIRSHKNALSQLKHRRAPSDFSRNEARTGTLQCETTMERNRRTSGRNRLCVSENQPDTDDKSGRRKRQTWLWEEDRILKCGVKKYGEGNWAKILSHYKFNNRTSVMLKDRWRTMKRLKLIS

T2: TRF purified from HeLa nuclear extract (Homo sapiens, UniProt P54274 SEQ:1-439)
T2 chain: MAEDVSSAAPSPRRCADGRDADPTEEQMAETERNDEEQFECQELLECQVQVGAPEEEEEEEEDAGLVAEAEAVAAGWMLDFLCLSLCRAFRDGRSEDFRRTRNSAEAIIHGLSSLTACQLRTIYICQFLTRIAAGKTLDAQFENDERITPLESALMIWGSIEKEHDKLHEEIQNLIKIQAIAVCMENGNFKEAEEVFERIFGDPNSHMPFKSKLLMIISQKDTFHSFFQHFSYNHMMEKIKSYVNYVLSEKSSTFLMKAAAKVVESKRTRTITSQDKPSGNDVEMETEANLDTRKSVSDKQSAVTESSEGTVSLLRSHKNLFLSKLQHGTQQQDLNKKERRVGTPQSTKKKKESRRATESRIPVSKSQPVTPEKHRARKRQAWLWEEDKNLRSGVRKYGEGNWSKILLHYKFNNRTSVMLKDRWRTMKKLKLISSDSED

B1: (TTAGGG)12 restriction fragment probe (dsDNA)
DNA 1: TTAGGGTTAGGGTTAGGGTTAGGGTTAGGGTTAGGGTTAGGGTTAGGGTTAGGGTTAGGGTTAGGGTTAGGG
DNA 2: CCCTAACCCTAACCCTAACCCTAACCCTAACCCTAACCCTAACCCTAACCCTAACCCTAACCCTAACCCTAA
B2: 145 bp TTAGGG repeat gel-shift probe (dsDNA)
DNA 1: GTACCCGGGGATCGTGACTCTAGAGGGGCCCTAACCCTAACCCTAACCCTAACCCTAACCCTAACCCTAACCCTAACCCTAACCCTAACCCTAACCCTAACCCTAACCCGGGTCGAATTCGATCTCTAGAGTCGACCTGCAGGCATGC
DNA 2: GCATGCCTGCAGGTCGACTCTAGAGATCGAATTCGACCCGGGTTAGGGTTAGGGTTAGGGTTAGGGTTAGGGTTAGGGTTAGGGTTAGGGTTAGGGTTAGGGTTAGGGTTAGGGTTAGGGCCCCTCTAGAGTCACGATCCCCGGGTAC

Assays:
[1] = biological target: T1, TRF (MTRF12, full length); assay: EMSA; reticulocyte lysate; complex co-migrates with J558 mouse TRF; details: label: radiolabelled
Text: The mouse cDNA (MTRF12) contained its own initiator codon and was transcribed and translated without further modification using the T3 promoter in its pBluescript vector. Similar to the human cDNA, a ~60 kD protein was synthesized that bound TTAGGG repeats but not TYGGGG or TTAGGC repeats (FIG. 6).

[2] = biological target: TRF (HTRF4.1, TRF1) partial ORF from N-terminal XhoI site to stop (Homo sapiens, UniProt P54274 SEQ:45-439); assay: EMSA; reticulocyte lysate; no complex without TRF cDNA; text of Example 4 prints probe as (TTAGGG)2; details: tags: His6 (pET28b, Novagen) N-terminal fusion; label: radiolabelled
Text: Proof that the cDNAs encode TRF activity. One of the human cDNAs (HTRF4.1) was used to construct a fusion protein in which part of the TRF open reading frame from the N-terminal Xho I site to the natural termination codon at the Hind III site was inserted into the pET28b His6Tag expression vector from Novagen (Madison, Wis.). This new, chimeric open reading frame contained an initiator ATG codon with "Kozak rules" environment at its 5' end as well as an T7 RNA polymerase promoter sequence upstream. This construct was used for in vitro coupled transcription/translation (using a kit from Promega) resulting in synthetic protein (labelled with […]) with an apparent molecular weight (MW) of 60 kD. The in vitro synthesized protein was used in a gel-shift assay with a double stranded (TTAGGG)_2 repeat probe and shown to form a complex that migrates close to the HeLa TRF gel-shift complex.

[3] = biological target: T2, TRF purified from HeLa nuclear extract; assay: EMSA; column fractions in 100 mM KCl, 20 mM HEPES, 3 mM MgCl2, 20% glycerol, 0.1% NP-40; binding lost when highly purified, rescued by casein; details: label: radiolabelled
Method: TRF was isolated from a total of 9.2×10^11 HeLa Cells, equivalent to 940 liters of culture (in Joklik's Media, supplemented with bovine calf serum, 2 mM L-glutamine, 0.1 mM non-essential amino acids, and penicillin/streptomycin). A nuclear extract containing 4 grams of protein and about 650 pmol of TRF (1 pmol TRF is defined as the amount of protein required to complex 1 pmol of labelled probe), as determined by quantitation using a PhosphoImager, was obtained from the cells and the soluble fraction was then purified over a series of ion exchange and affinity columns, as noted above. For each column, the sample was loaded in buffer containing 100 mM KCl and the flow-through was reloaded. The columns were developed in buffer with increasing potassium chloride salt concentration, with a final stripping of the column with 1M salt. All fractions were dialyzed to 100 mM KCl, 20 mM HEPES, 3 mM MgCl_2, 20% glycerol, and 0.1% NP-40 (nonidet-P40). Activity was determined by gel shift assay using a probe of 145 bp fragment containing (TTAGGG)_2 having the following sequence (SEQ D NO:21): […]

Binder | binding result [1] | binding result [2] | binding result [3]
B1 | binds | binds | 
B2 |  |  | binds
